Assay results reported in a protein production outcome set (Wang et al. 2014).

Experiment: label from the status in PepcDB records
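Further: failed if final PepcDB status was selected cloned or expressed and not failed if soluble or beyond.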

Sequence | protein production
MLQTINKTLGKIMPLLTPLSVVSGVLLADYLNGLASLVPWIFAFMTFAGSLGANFQSLKTAVAHPLPMFLALFVLHIFMPVLAWSTGHLVFSGDSLTITGLTLGVVIPTGITSMIWAAMYKGNIGLTLSIILVDTILSPFIVPFSLSILAGAHVEMDVIGMMKGLVGMIVIPSLLGMLVNQFSTPERTVRLSANCAPFSKVGLAAVVAINSSVVAPYLKNVDLKFLTIAVTVFLVAFTGYLTAWLIGRLMKRPQEEIVALIFTGGMRNISAGAVLATSFFPPQVAVPVVIGMLFQQILAALFGHLLARSELKKAHHLDKKTSLPS | failed
MPIRRRTSGNDRKNIGPRMEVARVREPFSFGVPERRRFAMQFGYDMRPSFWQEVRSNSHLVIAAVGTAALLGVAAVALWLALPTSERQAAASQEQSIPSIPVKTMKIVPAGTTVAAATVPQPARKSDQVSPTVAVAKANIQALAANDPRWTEAQPKTASAAPDQAAAPSQAANQAEPAPNKPAVTAAFAPSATDTDAASELAKVAAPAPAAGSNPDGAKTAAIPEVQPQAPEQQPTASDDGSKARAKPPKVAAAGNGRILRPVTMRSGPKKNAAAIGTVPARTSVQVMICKQWCQIVYNGKTGWVYKSYIKTGG | failed
MAQTQGTRRKVCYYYDGDVGNYYYGQGHPMKPHRIRMTHNLLLNYGLYRKMEIYRPHKANAEEMTKYHSDDYIKFLRSIRPDNMSEYSKQMQRFNVGEDCPVFDGLFEFCQLSTGGSVASAVKLNKQQTDIAVNWAGGLHHAKKSEASGFCYVNDIVLAILELLKYHQRVLYIDIDIHHGDGVEEAFYTTDRVMTVSFHKYGEYFPGTGDLRDIGAGKGKYYAVNYPLRDGIDDESYEAIFKPVMSKVMEMFQPSAVVLQCGSDSLSGDRLGCFNLTIKGHAKCVEFVKSFNLPMLMLGGGGYTIRNVARCWTYETAVALDTEIPNELPYNDYFEYFGPDFKLHISPSNMTNQNTNEYLEKIKQRLFENLRMLPH | failed
MLKEILSSALLMLIMIDPSDKILLVSLLREDFHIEDVKSLIIRANLIGFILLLLFAVAGKIILQDIFHIELDALRVAGGFVLFKIGLEALEGGGMVTIKREKNILALAAVPVATPLIAGPAAITAAITLTAEHGIIVSIVGTLIAIAITAALMMIALYLMRGISKTALSVTIRIIGLFIMAIGAQMMITGAGGIVLNLIKGA | failed
MASKITQPDKYSGFLNNYSDLKETTSATGKPVLRWVDPSFDQSKYDSIVWNPITYYPVPKPSTQVGQKVLDKILNYTNTEMKEAIAQRKPLVTTAGPRSLIFRGAITGVDTSKEGLQFYEVVPVALVVAGTQMATGHRTMDTRLYFEGELIDAATNKPVIKVVRQGEGKDLNNESTPMAFENIKQVIDDMATDATMFDVN | failed
MLVLILLSSSLAIFAIINLSYSLGDAKAINASGSLRMQSYRLMFYANSGSEAAQEKITEFENTLHSEALHPSKSWLSPKKIAAQYQLVIDKWLVMKYYIEQENSRDYAASLKDFVDTIDLLVLEMEHHAAFKLRLLAASQIFGLGLMLSIAFLAVRFTKRKVVVPLQQLMESANTISKGNFEIEMPETEYIELTALTDALQKTARELATLYGNLESQVAEKTLALTRANNELAFLYDTLLTLNAKKLDYKALKAALNQLKDYESIDYLRLIIQYPEQELEMIEANGGWPESADNSTRFPLQFEQANLGYLELISAQDINTPLFKNFAIMLTRSIVIHNATEQRQQLALMEERGVIARELHDSLGQVLSFLKIQISLLRKNLDHSCRSPAVEVQLTEINEGVSTAYVQLRELLSTFRLTIKEPNLKNAMEAMLEQLRANTDIKIHLDYKLSPQWLEAKQHIHILQITREATLNAIKHANASHINIRCYKDDRGMVNISVSDNGVGIGHIKERDQHFGIGIMHERASKLDGEVVFSSNDTHTNSTATTEQRHQENPDSPLESHNTSNLSQGTIVTLIFPSQQEPTHG | failed
MTQHLTIAQTYLAAWNEEDNERRRHLVGQAWAENTRYVDPLMQGEGQQGIAAMIEAARQKFPGYRFVLAGTPDGHGNFTRFSWRLISPDGDDVAGGTDVVSLNTEGRIDNVVGFLDGAVS | not failed
MSLHPNIQAVTDRIRKRSAPSRAAYLAGLDAALREGPFRSRLSCGNLAHGFAASEPGDKSRLRGAATPNLGIITAYNDMLSAHQPFEHYPQLIRETARTLGATAQVAGGVPAMCDGVTQGRAGMELSLFSRDNIAQATAIGLSHDMFDSVVYLGVCDKIVPGLLIGALAFGHLPAIFMPAGPMTPGIPNKQKAEVRERYAAGEATRAELLEAEASSYHSPGTCTFYGTANSNQVLLEAMGVQLPGASFVNPELPLRDALTREGTARALAISALGEDFRPFGRLIDERAIVNAVVALMATGGSTNHTIHWIAVARAAGIVLTWDDMDLISQTVPLLTRIYPNGEADVNRFQAAGGTAFVFRELMDAGYMHDDLPTVVEGGMRAYINEPRLQDGKVTYVPGTATTADDSVARPVGDAFESQGGLRLLRGNLGRSLIKLSAVKPQHRSIQAPAVVIDTPQVLNKLHAAGVLPHDFVVVLRYQGPRANGMPELHSMAPLLGLLQNQGRRVALVTDGRLSGASGKFPAAIHLTPEAARGGPIGRVREGDIVRLDGEAGTLEVLVSAEEWASREVAPNTSVAGNDLGRNLFAINRQVVGPADQGAISISCGPTHPDGALWSYDAEYELGADAAAAAAPHESKDA | failed
MNQNWHATLIRHLLLLITVCLIGGLVSGYYGWSLAIGLALYLGWTLKQLLRLHDWLRNHQPDEAPPDGYGLWGEVFDSIYHLQRRDQRVRGRLQAVIDRVQESTAALRDAVIMLDSDGNLEWWNRAAETLLGFKTPQDGGQQVTNLVRHPLFKEYFEAENYLEPLEIPSPINDRMRVQLHITRYGNNEHLMLVRDVTRIHQLEQMRKDFVANVSHELRTPLTVITGYLETLLDNVEDVNPRWSRALQQMSQQGSRMQTLLNDLLLLAKLEATDYPSDNQPVAVDALLAAIKNDAQALSGPRNQRINLEAAPGVKLKGSESELRSAFSNLVFNAVKYTQDEGSIRIRWWADAQGAHLSVQDSGVGIDAKHLPRLTERFYRVDSSRASNTGGTGLGLAIVKHVLMRHRGKLEISSVPGHGSTFTCHFAPAQLANEKA | failed
MIKLYSPYAFLSKYLGAILLSFFCYYAKEIGCNNLTLSVWNDNEGALRFYQRQGMKPQETTMEMIID | failed
MNRIKEVLEEKGIKQTWLAEKLGKSFSIVNSYVCNRRQPSLDILFEIAKILEVDVRVLIGTKENRQKSK | not failed
MKKLVHLSDFHYDGLRLSEEMLAEAIAVSNQVQPDLVLLTGDYVTTTPQPIHQLAKRLQKLQSHAGIYAILGNHDLYQKNSKTEITQALTKAGIQVLWNEIAYPLGEELPIVGIVDYYYREFNPQLLFNQLEPTTPRIVLCHNPDTAAMLQGWRVDLQLSGHTHGGLEHHHHHH | failed
MDRFENMNAFVRVVETGSISAAADRMDIAKSVVSRRLKELEEHLGVELFHRTTRQMNLTDSGRAFYQQSVRILADVLEAEHATSQFHGRLKGHLKVAVPLSFGLMHLGAAISTFLQTHPDIEFDLDFNDRQVDLLAEGFDLAIRIANLPDSSLIARRLAPIQAVMCASPAYLERMGTPQAPEELIRHRCLVYNLVSHSDNWNVYGTTGELIKTRIIPYLKASNGEFLRDAAVDGLGIVLLPTFIVYREIQRGALIPILTGYHYAQLAAYAIYPQTRHLSQRVRAFVDFLSQRFEGMPYWDACLNQ | failed
MTTLTAQQIACVYAWLAQLFSRELDDEQLTQIASAQMAEWFSLLKNEPPLTAAVNELENRIATLTVRDDARLELAADFCGLFLMTDKQAALPYASAYKQDEQEIKRLLVEAGMETSGNFNEPADHLAIYLELLSHLHFSLGEGTVPARRIDSLRQKTLTALWQWLPEFVARCRQYDSFGFYAALSQLLLVLVECDHQNR | failed
MGLFAKITTASDPRTARIAGILLMLLAMLAFSFADAAGKTVVAIYSVGQLLVLRALAGLLVLSPLIWRQRKAFLQLERPGLQLARTLIAACEVAVFYLATAYLPLADVITFYLASSLFVSVGAALFLGETIDRPRGIAIVVGFVGVLIALQPSTQTMSWPALIAILASVLFAGLLLLTRFLRQTPDMVLASQQFAGTLLLGLVLAPSGWITPSATDLVWFAISGAVSAVGLLCVNRSLRLAPASVVVPYQYTMIIFAAAFGWLLFGDVPSRATVAGVAIIIAAGLYLGWRERSTSRPPVGG | failed
MQQSEHFSFGEQTEIEDIGGGLKRQMLGFNHELMAVKIWFDKGAEGYVHAHRHSQVSYVVEGEFHVNVDGVIKVLTAGDSFFVPPHVDHGAVCPTGGILIDTFSPAREDFVEGLS | not failed
MSVFSGFPASPPDAILNLTVLYNADTNPKKVNLGVGAYRDESGKPWILPAVKEAEAIISSDLSKYNKEYPPVAGFPLFLEAAQFLMFGKDSKAAQEGRIASCQSLSGTGSLHIGFEFLHLWMPKAEFYMPSTTWPNHYGIYDKVFNKLKVPYKEYTYLRKDGELEIDFSNTKKDIQSAPEKSIFLFHACAHNPSGIDFTEAQWKELLPIMKEKKHIAFFDSAYQGFATGSFEADAFAVRMFVDAGVEVLVAQSFSKNFGLYGERIGCLHVVHAGVEGSVEKNKALSAAMVSGMTLQIRKTWSMSAIHGAYIVQVIVHDKRLLQMFYDNVKEMSARIHRMRSLLHASLAKRKTPGPGSKGTWDHILTAIGMFTFTGLTPEHVDYLKEKWSIYLVKAGGRMSMCGLTESNCDYVAEAIHDAVTKLPFKK | not failed
MTTIAILSDIHGNMTAFSAVIQDAKAHQADEYWFLGDLFLPGPGSDKLWATLHGLKPTHIVKGNWDDDLFWVLDGPVDLSQPTDVYFSRLVAYLWPHLTAENLATIRNWPLHEVFEQDGLIVSLAHNLPDKNHGHALYPDQPQLNFDQIAPDSQIDLAVYGHTHQQLLRYTSNGQVILNPGSIGQAYSPRPHLQTTTYADYALLQLNDGAITDLDLRQVPYDVSAELSLAKQQQLPYPEVYTKLRHTGATSTHNAAYLKQFEQRHDYQQEVAEFLHKYRHQHLEHHHHHH | failed
MEVKFLDYTLRVGGEAGQGLQTIGGALAKIFSRKGYHVFTHQDYMSRIRGGHNFYQLRFSDREVMASKELVDILLALDLNTIEIHKNSVREDGFILYDSESMKKKFEGPQFIDIPFRKIALDVGKKSVMANTVATGAVLGLLDLGLDLLNDILRVTFEDKGKEIIEQNIACAEAGYNYAHSNCSRCEAFGIPEPEARKLLLIDGVQAIGMGALMSGCTFYSAYPMSPSTGILNYLASRAEEYGLVIEQAEDEIAAINMTIGASFAGARAMTGTSGGGFSLMAEGISLAGITETPLVLAEMQRPGPATGLPTRTEQGDLLFVLNAGHGEFPRVIFEPGTPEQAFYLTSKAFELAEKYQIPVFILSDQYLGESEWTFESFDLKRPVYNDYRVREKDLEGAEDYKRYGYTDTGISPLAVPGEAGKHLVVADSDEHDEEGHIIEDAETRIKMVQKRLLKKLPLIKEEIEAPLLYGDSSPEIVLVGHGSTYGVIKEIVDIFSKDKKIAMMHFSQIYPFPERDRFDYIEFLKNANLVISVENNATGQFAKLMRAETGFEFARQILKYDGRPFTIEKLKEEIDACL | failed
MKYYPFSYYRSINAADLYENIKAYTVLDVREPFELIFGSIANSINIPISELREKWKILERDKKYAVICAHGNRSAAAVEFLSQLGLNIVDVEGGIQSWIEEGYPVVYGRESAEDLEHHHHHH | not failed
MILSLCCLGSWPAILTLLERRGRLPQHTFLDFATANLLAAIVIAFSLGEIGKSTFLKPDFTTQLPQDNWPSVLLAVAGGVLLSIGNLATQYAFAFVGLSVTEVITASITVVIGTTLNYFLDNKINKAEILFPGVGCFLIAVFLGAAVHASNAADVKEKLKSLPSEDLYSSIENGEDKPEIEKTDVESQEKLAEKAKAGTAGFYVELENKRAIKVFGKSIMIGLFITLFAGISLSLFSPAFNLATNDQWSTLPKGVPKLVVYTAFFYFSIAGFLISLILNLIFLYRPMVGLARSSLKKYIYDSKGRGWAVFAGFLCGFGNGLQFMGGQAAGYAAADSVQALPLVSTFWGIVLFGEYRKSSKRTYALLVSMLAMFVAAVAILMASSGHRK | failed
